Laboratory results published in publication PMC12102759 (2025).

B1: TPTE2 peptide 92-107 (Phosphatidylinositol 3,4,5-trisphosphate 3-phosphatase TPTE2), 16-mer library wild type / TLN1 PTB (TLN1 Phosphotyrosine-binding (PTB) domain, residues 309-401) (parent complex)
chain 1: LADLIFTDSKLYIPLE
chain 2: GVSFFLVKEKMKGKNKLVPRLLGITKECVMRVDEKTKEVIQEWNLTNIKRWAASPKSFTLDFGDYQDGYYSVQTTEGEQIAQLIAGYIDIILK

Variants of: B1
Assay: proteomic peptide phage display deep mutational scan (ProP-PD DMS): M13 P8 16-mer library selected against immobilised GST-tagged bait for four days (rounds), NGS of the eluted pools per day and pseudo-replica; bait immobilised on MaxiSorp plates (10 µg), library pre-cleared on GST, 2 h binding at 4 °C, five washes; one round per day, days 1-4; value from days 2 and 3

First: chain 1 D8T
Second: chain 1 L15D
The screen value of the first is higher: 0.000557 average fractional NGS count over selection days 2 and 3 (reads of this peptide / all reads for the bait, averaged over … for the first, 0.000238 average fractional NGS count over selection days 2 and 3 (reads of this peptide / all reads for the bait, averaged over … for the second.

First: chain 1 A2N
Second: chain 1 A2R
The screen value of the first is lower: 0.000208 average fractional NGS count over selection days 2 and 3 (reads of this peptide / all reads for the bait, averaged over … for the first, 0.00121 average fractional NGS count over selection days 2 and 3 (reads of this peptide / all reads for the bait, averaged over … for the second.

Compared with chain 1 I5H, chain 1 I13K is higher in screen value: 0.000463 average fractional NGS count over selection days 2 and 3 (reads of this peptide / all reads for the bait, averaged over … for the first, 0.0008 average fractional NGS count over selection days 2 and 3 (reads of this peptide / all reads for the bait, averaged over … for the second.

First: chain 1 I5V
Second: chain 1 E16I
The screen value of the first is higher: 0.000758 average fractional NGS count over selection days 2 and 3 (reads of this peptide / all reads for the bait, averaged over … for the first, 0.000286 average fractional NGS count over selection days 2 and 3 (reads of this peptide / all reads for the bait, averaged over … for the second.

First: chain 1 K10Q
Second: chain 1 P14W
The screen value of the first is higher: 0.00103 average fractional NGS count over selection days 2 and 3 (reads of this peptide / all reads for the bait, averaged over … for the first, 0.000152 average fractional NGS count over selection days 2 and 3 (reads of this peptide / all reads for the bait, averaged over … for the second.

First: chain 1 I5W
Second: chain 1 I5Q
The screen value of the first is higher: 0.00126 average fractional NGS count over selection days 2 and 3 (reads of this peptide / all reads for the bait, averaged over … for the first, 0.000996 average fractional NGS count over selection days 2 and 3 (reads of this peptide / all reads for the bait, averaged over … for the second.

Going from chain 1 I5F to chain 1 I5E, the screen value falls from 0.000696 average fractional NGS count over selection days 2 and 3 (reads of this peptide / all reads for the bait, averaged over … to 0.000204 average fractional NGS count over selection days 2 and 3 (reads of this peptide / all reads for the bait, averaged over ….

First: chain 1 D3Q
Second: chain 1 L15Y
The screen value of the first is lower: 0.000216 average fractional NGS count over selection days 2 and 3 (reads of this peptide / all reads for the bait, averaged over … for the first, 0.00117 average fractional NGS count over selection days 2 and 3 (reads of this peptide / all reads for the bait, averaged over … for the second.

First: chain 1 I13E
Second: chain 1 L4H
The screen value of the first is lower: 0.000182 average fractional NGS count over selection days 2 and 3 (reads of this peptide / all reads for the bait, averaged over … for the first, 0.000467 average fractional NGS count over selection days 2 and 3 (reads of this peptide / all reads for the bait, averaged over … for the second.

Going from chain 1 E16N to chain 1 D8Q, the screen value falls from 0.00152 average fractional NGS count over selection days 2 and 3 (reads of this peptide / all reads for the bait, averaged over … to 0.000205 average fractional NGS count over selection days 2 and 3 (reads of this peptide / all reads for the bait, averaged over ….

Compared with chain 1 T7V, chain 1 I5G is lower in screen value: 0.000833 average fractional NGS count over selection days 2 and 3 (reads of this peptide / all reads for the bait, averaged over … for the first, 0.000313 average fractional NGS count over selection days 2 and 3 (reads of this peptide / all reads for the bait, averaged over … for the second.

First: chain 1 E16M
Second: chain 1 L15Q
The screen value of the first is higher: 0.0125 average fractional NGS count over selection days 2 and 3 (reads of this peptide / all reads for the bait, averaged over … for the first, 0.00188 average fractional NGS count over selection days 2 and 3 (reads of this peptide / all reads for the bait, averaged over … for the second.

First: chain 1 K10Y
Second: chain 1 E16S
The screen value of the first is higher: 0.00128 average fractional NGS count over selection days 2 and 3 (reads of this peptide / all reads for the bait, averaged over … for the first, 0.000917 average fractional NGS count over selection days 2 and 3 (reads of this peptide / all reads for the bait, averaged over … for the second.

First: chain 1 E16V
Second: chain 1 A2D
The screen value of the first is higher: 0.0105 average fractional NGS count over selection days 2 and 3 (reads of this peptide / all reads for the bait, averaged over … for the first, 0.0012 average fractional NGS count over selection days 2 and 3 (reads of this peptide / all reads for the bait, averaged over … for the second.

Compared with chain 1 P14G, chain 1 D3S is lower in screen value: 0.000463 average fractional NGS count over selection days 2 and 3 (reads of this peptide / all reads for the bait, averaged over … for the first, 0.000257 average fractional NGS count over selection days 2 and 3 (reads of this peptide / all reads for the bait, averaged over … for the second.

First: chain 1 A2I
Second: chain 1 I13L
The screen value of the first is lower: 0.000259 average fractional NGS count over selection days 2 and 3 (reads of this peptide / all reads for the bait, averaged over … for the first, 0.000788 average fractional NGS count over selection days 2 and 3 (reads of this peptide / all reads for the bait, averaged over … for the second.

Going from chain 1 I13F to chain 1 Y12W, the screen value rises from 0.000135 average fractional NGS count over selection days 2 and 3 (reads of this peptide / all reads for the bait, averaged over … to 0.000296 average fractional NGS count over selection days 2 and 3 (reads of this peptide / all reads for the bait, averaged over ….

Compared with chain 1 K10E, chain 1 I13R is lower in screen value: 0.00277 average fractional NGS count over selection days 2 and 3 (reads of this peptide / all reads for the bait, averaged over … for the first, 0.00065 average fractional NGS count over selection days 2 and 3 (reads of this peptide / all reads for the bait, averaged over … for the second.

Compared with chain 1 D3G, chain 1 K10P is higher in screen value: 0.000214 average fractional NGS count over selection days 2 and 3 (reads of this peptide / all reads for the bait, averaged over … for the first, 0.000281 average fractional NGS count over selection days 2 and 3 (reads of this peptide / all reads for the bait, averaged over … for the second.

Compared with chain 1 E16A, chain 1 E16F is lower in screen value: 0.00143 average fractional NGS count over selection days 2 and 3 (reads of this peptide / all reads for the bait, averaged over … for the first, 0.000466 average fractional NGS count over selection days 2 and 3 (reads of this peptide / all reads for the bait, averaged over … for the second.

Compared with chain 1 Y12F, chain 1 E16H is higher in screen value: 0.00012 average fractional NGS count over selection days 2 and 3 (reads of this peptide / all reads for the bait, averaged over … for the first, 0.00501 average fractional NGS count over selection days 2 and 3 (reads of this peptide / all reads for the bait, averaged over … for the second.

Going from chain 1 I5R to chain 1 K10A, the screen value falls from 0.0019 average fractional NGS count over selection days 2 and 3 (reads of this peptide / all reads for the bait, averaged over … to 0.0017 average fractional NGS count over selection days 2 and 3 (reads of this peptide / all reads for the bait, averaged over ….

Compared with chain 1 I5Y, chain 1 T7H is lower in screen value: 0.00125 average fractional NGS count over selection days 2 and 3 (reads of this peptide / all reads for the bait, averaged over … for the first, 0.000516 average fractional NGS count over selection days 2 and 3 (reads of this peptide / all reads for the bait, averaged over … for the second.

First: chain 1 K10N
Second: chain 1 A2K
The screen value of the first is lower: 0.000537 average fractional NGS count over selection days 2 and 3 (reads of this peptide / all reads for the bait, averaged over … for the first, 0.000711 average fractional NGS count over selection days 2 and 3 (reads of this peptide / all reads for the bait, averaged over … for the second.

Going from chain 1 E16G to chain 1 E16L, the screen value falls from 0.000982 average fractional NGS count over selection days 2 and 3 (reads of this peptide / all reads for the bait, averaged over … to 0.000229 average fractional NGS count over selection days 2 and 3 (reads of this peptide / all reads for the bait, averaged over ….

Going from chain 1 D8P to chain 1 L4Q, the screen value rises from 0.000129 average fractional NGS count over selection days 2 and 3 (reads of this peptide / all reads for the bait, averaged over … to 0.000755 average fractional NGS count over selection days 2 and 3 (reads of this peptide / all reads for the bait, averaged over ….

Going from chain 1 L15N to chain 1 E16Q, the screen value rises from 0.000216 average fractional NGS count over selection days 2 and 3 (reads of this peptide / all reads for the bait, averaged over … to 0.000507 average fractional NGS count over selection days 2 and 3 (reads of this peptide / all reads for the bait, averaged over ….

First: chain 1 K10F
Second: chain 1 F6W
The screen value of the first is lower: 0.000223 average fractional NGS count over selection days 2 and 3 (reads of this peptide / all reads for the bait, averaged over … for the first, 0.000583 average fractional NGS count over selection days 2 and 3 (reads of this peptide / all reads for the bait, averaged over … for the second.

Compared with chain 1 K10L, chain 1 L11M is higher in screen value: 0.000166 average fractional NGS count over selection days 2 and 3 (reads of this peptide / all reads for the bait, averaged over … for the first, 0.000677 average fractional NGS count over selection days 2 and 3 (reads of this peptide / all reads for the bait, averaged over … for the second.

First: chain 1 K10M
Second: chain 1 D8N
The screen value of the first is higher: 0.0107 average fractional NGS count over selection days 2 and 3 (reads of this peptide / all reads for the bait, averaged over … for the first, 0.00152 average fractional NGS count over selection days 2 and 3 (reads of this peptide / all reads for the bait, averaged over … for the second.

First: chain 1 K10R
Second: chain 1 T7W
The screen value of the first is higher: 0.00219 average fractional NGS count over selection days 2 and 3 (reads of this peptide / all reads for the bait, averaged over … for the first, 0.000447 average fractional NGS count over selection days 2 and 3 (reads of this peptide / all reads for the bait, averaged over … for the second.

Compared with chain 1 L15W, chain 1 L11H is lower in screen value: 0.000732 average fractional NGS count over selection days 2 and 3 (reads of this peptide / all reads for the bait, averaged over … for the first, 0.000165 average fractional NGS count over selection days 2 and 3 (reads of this peptide / all reads for the bait, averaged over … for the second.

Going from chain 1 D8Y to chain 1 A2G, the screen value rises from 0.000841 average fractional NGS count over selection days 2 and 3 (reads of this peptide / all reads for the bait, averaged over … to 0.00214 average fractional NGS count over selection days 2 and 3 (reads of this peptide / all reads for the bait, averaged over ….

Going from chain 1 I5D to chain 1 A2T, the screen value rises from 0.0016 average fractional NGS count over selection days 2 and 3 (reads of this peptide / all reads for the bait, averaged over … to 0.00695 average fractional NGS count over selection days 2 and 3 (reads of this peptide / all reads for the bait, averaged over ….

Compared with chain 1 L4A, chain 1 L11V is higher in screen value: 0.000153 average fractional NGS count over selection days 2 and 3 (reads of this peptide / all reads for the bait, averaged over … for the first, 0.00254 average fractional NGS count over selection days 2 and 3 (reads of this peptide / all reads for the bait, averaged over … for the second.

Compared with chain 1 L4P, chain 1 L15V is higher in screen value: 0.000281 average fractional NGS count over selection days 2 and 3 (reads of this peptide / all reads for the bait, averaged over … for the first, 0.0032 average fractional NGS count over selection days 2 and 3 (reads of this peptide / all reads for the bait, averaged over … for the second.

Compared with chain 1 I5K, chain 1 L11G is higher in screen value: 0.000454 average fractional NGS count over selection days 2 and 3 (reads of this peptide / all reads for the bait, averaged over … for the first, 0.000473 average fractional NGS count over selection days 2 and 3 (reads of this peptide / all reads for the bait, averaged over … for the second.

chain 1 L4G was tested, and the screen value was 0.000192 average fractional NGS count over selection days 2 and 3 (reads of this peptide / all reads for the bait, averaged over ….
